Assay: soluble on expression in E. coli; label from the status in PepcDB or PDB records

Sequence | soluble on expression in E. coli
MSLQHMYRCARVQGLDTSEGLLLFGKEHFYVIDGFTMTATREIRDIETLPPNMHEPIIPRGARQGPSQLKRTCSIFAYEDIKEVHKRRYLLQPIAVEVFSGDGRNYLLAFQKGIRNKVYQRFLAVVPSLTDSSESVSGQRPNTSVEQGSGLLSTLVGEKSVTQRWERGEISNFQYLMHLNTLAGRSYNDLMQYPVFPWILSDYDSEEVDLTNPKTFRNLAKPMGAQTDERLAQYKKRYKDWEDPNGETPAYHYGTHYSSAMIVASYLVRMEPFTQIFLRLQGGHFDLADRMFHSVREAWYSASKHNMADVKELIPEFFYLPEFLFNSNNFDLGCKQNGTKLGDVILPPWAKGDPREFIRVHREALECDYVSAHLHEWIDLIFGYKQQGPAAVEAVNVFHHLFYEGQVDIYNINDPLKETATIGFINNFGQIPKQLFKKPHPPKRVRSRLNGDNIGISVPPGATSDKIFFHHLDNLRPSLTPVKELKEPVGQIVCTDKGILAVEQNKVLIPPAWNKTFAWGYADLSCRLGTYESDKAVTVYECLSEWGQILCAVCPNPKLVITGGTSTVVCVWEMGTSKEKAKPLTLKQALLGHTDTVTCATASLAYHIIVSGSRDRTCIIWDLNKLSFLTQLRGHRAPVSALCINELTGDIVSCAGTYIHVWSINGNPIVSVNTFTGRSQQIVCCCMSEMNEWDTQNVIVTGHSDGVVRFWRMEFLQVPETPAPEPVEDLEMQEGCPEAQIGQQAQDDDSSDSETEEPSVSQDPKDTSSQPSSTSHRPRAASCRATATWCTDSGSDDSRRWSDQLSLDEKDGFIFVNYSEGQTRAHLQGPLAHPHPNPIEARSYSRLKPGYRWERQLVFRSKLTMHTAFDRKDNTHPAEVTALGVSKDHSRILVGDSRGRVFSWSVSDQEGHHHHHH | not soluble
MVNIMDEIIVVTTPTIPGYKIIEVKGIARGGIVMATHLGRDILALLRNIKGGEVKEYTQMMAEAREEALRRMIEHAKKLGANAVVNFRFATSNVGGGMAEVYAYGTAVVVEREKMASMTGGQQMGRIRIRLEHHHHHH | soluble
MEPEEERIRYSQRLRGTMRRRYEDDGISDDEIEGKRTFDLEEKLHTNKYNANFVTFMEGKDFNVEYIQRGGLRDPLIFKNSDGLGIKMPDPDFTVNDVKMCVGSRRMVDVMDVNTQKGIEMTMAQWTRYYETPEEEREKLYNVISLEFSHTRLENMVQRPSTVDFIDWVDNMWPRHLKESQTESTNAILEMQYPKVQKYCLMSVRGCYTDFHVDFGGTSVWYHIHQGGKVFWLIPPTAHNLELYENWLLSGSQGDIFLGDRVSDCQRIELKQGYTFVIPSGWIHAVYTPTDTLVFGGNFLHSFNIPMQLKIYNIEDRTRVPNKFRYPFYYEMCWYVLERYVYCITNRSHLTKEFQKESLSMDLELNGLESGNGDEEAVDREPRQVHLTHFELEGLRCLVDKLESLPLHKKCVPTGIEDEDALIADVKILLEELANSDPKLALTGVPIVQWP | soluble
MCIAIPGRIERIDYPIAIVDFKGLKKEVRIDLLENPQIGDYVLVHVGMAIQKVDEEEAKKTWELLERVADETGNQAF | not soluble
GPGSMTVVRAALLGFGTVGQGIYKIVQQRREQLKQKLGGAELVIVKILVRDLRKRSRVLPDGYASDAKLFTNNIEDVFRADVQVIFEATVGEEPAFTYLQRAIVEHGCSVITANKVMFARYGATLQELAASCTPTSSFPATRVYVGFEATVAAGVPIIKTLQNMCHVQQVRKIEGIVNGTSNYILTELREYPEKSFEEVLKKSQELGYAEADPTNDISGHDAFMKLLVMVAIAFGHQPSRSTVPVTGIDTLTPEMLQDARAKGLRYRHVVSAAMEGAATSSCALKSSAAEGEEAQPRTPPLHERLTCSVKPMLLGPEHPLYHMDGTTSAVSVWTDYLGVVTISGPGAGMYCTASAMMEDYAVWMEAFRRP | not soluble
GMFTCKVNEHITIRLLEPKDAERLAELIIQNQQRLGKWLFFAENPSSADTYRETIIPDWRRQYADLNGIEAGLLYDGSLCGMISLHNLDQVNRKAEIGYWIAKEFEGKGIITAACRKLITYAFEELELNRVAICAAVGNEKSRAVPERIGFLEEGKARDGLYVNGMHHDLVYYSLLKREWEGEK | soluble
MGSDKIHHHHHHMTQTPKPPLTIYLAAPRGFCAGVDRAIKIVEMALEKWGAPVFVRHEIVHNKYVVDDLKAKGAVFVEELSDCPDDRPVIFSAHGVPKSVPQAAAARQMVYVDATCPLVSKVHIEAQRHSDNGLQMVMIGHKGHPETIGTMGQLPDGEVLLVETVEDVATVEVRDPSRLAFVTQTTLSVDDTIEIVEALTTRFPAIVGPHKEDICYATTNRQEAVKAMAPKAEAMLVVGAPNSSNSKRLVEVGSRAGCAYSQLVQRAADIDWRALGDIKTLGITAGASAPEVLIEEVIQAFEDRFDVTRELVETAVENVEFKVPRVLRETA | not soluble
